Here are results for 15 molecules from patent US20260176319A1 (KALLYOPE, published 2026).

Starred links: 1 amine or outer side, 2 acyl side, 3 side chain; linkers in the order of their positions; H or OH if unused. Non-standard residues stand in square brackets, D forms with d. *: point of attachment. Trp(7-F) = N[C@@H](Cc1c[nH]c2c(F)cccc12)C(=O)O; Trp(7-Me) = Cc1cccc2c(C[C@H](N)C(=O)O)c[nH]c12; d(γGlu) = O=C(O)[C@@H](CCC(=O)[*:2])N[*:1]; C18 diacid = O=C(O)CCCCCCCCCCCCCCCCC(=O)*; γGlu = O=C(O)[C@H](CCC(=O)[*:2])N[*:1]; 2Nal = N[C@@H](Cc1ccc2ccccc2c1)C(=O)O; Palmitoyl = CCCCCCCCCCCCCCCC(=O)*; 3Pal = N[C@@H](Cc1cccnc1)C(=O)O; 4Pal = N[C@@H](Cc1ccncc1)C(=O)O; Nle = CCCC[C@H](N)C(=O)O; AEEA = NCCOCCOCC(=O)O; Sar = CNCC(=O)O Where only a bound is given, the exact number is not on record here.

Sequences and labels used below:
B1: Peptide 101 (peptide)
peptide: {C18 diacid}-[γGlu][AEEA][AEEA][AEEA][AEEA]GNH[Trp(7-F)]AV[dA]HL[Nle][Sar]-NH2
SMILES: CCCC[C@H](NC(=O)[C@H](CC(C)C)NC(=O)[C@H](Cc1c[nH]cn1)NC(=O)[C@@H](C)NC(=O)[C@@H](NC(=O)[C@H](C)NC(=O)[C@H](Cc1c[nH]c2c(F)cccc12)NC(=O)[C@H](Cc1c[nH]cn1)NC(=O)[C@H](CC(N)=O)NC(=O)CNC(=O)COCCOCCNC(=O)COCCOCCNC(=O)COCCOCCNC(=O)COCCOCCNC(=O)CC[C@H](NC(=O)CCCCCCCCCCCCCCCCC(=O)O)C(=O)O)C(C)C)C(=O)N(C)CC(N)=O
B2: Peptide 90 (peptide)
peptide: {C18 diacid}-[γGlu][AEEA][AEEA][AEEA][AEEA]GNH[Trp(7-Me)]AV[dA]HL[Nle]-NH2
SMILES: CCCC[C@H](NC(=O)[C@H](CC(C)C)NC(=O)[C@H](Cc1c[nH]cn1)NC(=O)[C@@H](C)NC(=O)[C@@H](NC(=O)[C@H](C)NC(=O)[C@H](Cc1c[nH]c2c(C)cccc12)NC(=O)[C@H](Cc1c[nH]cn1)NC(=O)[C@H](CC(N)=O)NC(=O)CNC(=O)COCCOCCNC(=O)COCCOCCNC(=O)COCCOCCNC(=O)COCCOCCNC(=O)CC[C@H](NC(=O)CCCCCCCCCCCCCCCCC(=O)O)C(=O)O)C(C)C)C(N)=O
B3: Peptide 98 (peptide)
peptide: {C18 diacid}-[γGlu][AEEA][AEEA][AEEA][AEEA]GNHWAV[dA]HL[Nle]-NH2
SMILES: CCCC[C@H](NC(=O)[C@H](CC(C)C)NC(=O)[C@H](Cc1c[nH]cn1)NC(=O)[C@@H](C)NC(=O)[C@@H](NC(=O)[C@H](C)NC(=O)[C@H](Cc1c[nH]c2ccccc12)NC(=O)[C@H](Cc1c[nH]cn1)NC(=O)[C@H](CC(N)=O)NC(=O)CNC(=O)COCCOCCNC(=O)COCCOCCNC(=O)COCCOCCNC(=O)COCCOCCNC(=O)CC[C@H](NC(=O)CCCCCCCCCCCCCCCCC(=O)O)C(=O)O)C(C)C)C(N)=O
B4: Peptide 99 (peptide)
peptide: {C18 diacid}-[γGlu][AEEA][AEEA]GNH[2Nal]AV[dA]HL[Nle][Sar]-NH2
SMILES: CCCC[C@H](NC(=O)[C@H](CC(C)C)NC(=O)[C@H](Cc1c[nH]cn1)NC(=O)[C@@H](C)NC(=O)[C@@H](NC(=O)[C@H](C)NC(=O)[C@H](Cc1ccc2ccccc2c1)NC(=O)[C@H](Cc1c[nH]cn1)NC(=O)[C@H](CC(N)=O)NC(=O)CNC(=O)COCCOCCNC(=O)COCCOCCNC(=O)CC[C@H](NC(=O)CCCCCCCCCCCCCCCCC(=O)O)C(=O)O)C(C)C)C(=O)N(C)CC(N)=O
B5: Peptide 94 (peptide)
peptide: Palmitoyl-[γGlu][AEEA][AEEA]GN[4Pal]WAV[dA]HL[Nle]-NH2
SMILES: CCCCCCCCCCCCCCCC(=O)N[C@@H](CCC(=O)NCCOCCOCC(=O)NCCOCCOCC(=O)NCC(=O)N[C@@H](CC(N)=O)C(=O)N[C@@H](Cc1ccncc1)C(=O)N[C@@H](Cc1c[nH]c2ccccc12)C(=O)N[C@@H](C)C(=O)N[C@H](C(=O)N[C@H](C)C(=O)N[C@@H](Cc1c[nH]cn1)C(=O)N[C@@H](CC(C)C)C(=O)N[C@@H](CCCC)C(N)=O)C(C)C)C(=O)O
B6: Peptide 100 (peptide)
peptide: {C18 diacid}-[γGlu][AEEA][AEEA]RNHWAV[dA]HL[Nle][Sar]-NH2
SMILES: CCCC[C@H](NC(=O)[C@H](CC(C)C)NC(=O)[C@H](Cc1c[nH]cn1)NC(=O)[C@@H](C)NC(=O)[C@@H](NC(=O)[C@H](C)NC(=O)[C@H](Cc1c[nH]c2ccccc12)NC(=O)[C@H](Cc1c[nH]cn1)NC(=O)[C@H](CC(N)=O)NC(=O)[C@H](CCCNC(=N)N)NC(=O)COCCOCCNC(=O)COCCOCCNC(=O)CC[C@H](NC(=O)CCCCCCCCCCCCCCCCC(=O)O)C(=O)O)C(C)C)C(=O)N(C)CC(N)=O
B7: Peptide 7 (peptide)
peptide: Palmitoyl-[d(γGlu)][AEEA][AEEA]GNHWAV[dA]HL[Nle]-NH2
SMILES: CCCCCCCCCCCCCCCC(=O)N[C@H](CCC(=O)NCCOCCOCC(=O)NCCOCCOCC(=O)NCC(=O)N[C@@H](CC(N)=O)C(=O)N[C@@H](Cc1c[nH]cn1)C(=O)N[C@@H](Cc1c[nH]c2ccccc12)C(=O)N[C@@H](C)C(=O)N[C@H](C(=O)N[C@H](C)C(=O)N[C@@H](Cc1c[nH]cn1)C(=O)N[C@@H](CC(C)C)C(=O)N[C@@H](CCCC)C(N)=O)C(C)C)C(=O)O
B8: Peptide 89 (peptide)
peptide: Palmitoyl-[γGlu][AEEA][AEEA]GRHWAV[dA]HL[Nle]-NH2
SMILES: CCCCCCCCCCCCCCCC(=O)N[C@@H](CCC(=O)NCCOCCOCC(=O)NCCOCCOCC(=O)NCC(=O)N[C@@H](CCCNC(=N)N)C(=O)N[C@@H](Cc1c[nH]cn1)C(=O)N[C@@H](Cc1c[nH]c2ccccc12)C(=O)N[C@@H](C)C(=O)N[C@H](C(=O)N[C@H](C)C(=O)N[C@@H](Cc1c[nH]cn1)C(=O)N[C@@H](CC(C)C)C(=O)N[C@@H](CCCC)C(N)=O)C(C)C)C(=O)O
B9: Peptide 88 (peptide)
peptide: {C18 diacid}-[γGlu][AEEA][AEEA]GRHWAV[dA]HL[Nle]-NH2
SMILES: CCCC[C@H](NC(=O)[C@H](CC(C)C)NC(=O)[C@H](Cc1c[nH]cn1)NC(=O)[C@@H](C)NC(=O)[C@@H](NC(=O)[C@H](C)NC(=O)[C@H](Cc1c[nH]c2ccccc12)NC(=O)[C@H](Cc1c[nH]cn1)NC(=O)[C@H](CCCNC(=N)N)NC(=O)CNC(=O)COCCOCCNC(=O)COCCOCCNC(=O)CC[C@H](NC(=O)CCCCCCCCCCCCCCCCC(=O)O)C(=O)O)C(C)C)C(N)=O
B10: Peptide 97 (peptide)
peptide: {C18 diacid}-[γGlu][AEEA][AEEA]GNHWAV[dA]HL[Nle]-NH2
SMILES: CCCC[C@H](NC(=O)[C@H](CC(C)C)NC(=O)[C@H](Cc1c[nH]cn1)NC(=O)[C@@H](C)NC(=O)[C@@H](NC(=O)[C@H](C)NC(=O)[C@H](Cc1c[nH]c2ccccc12)NC(=O)[C@H](Cc1c[nH]cn1)NC(=O)[C@H](CC(N)=O)NC(=O)CNC(=O)COCCOCCNC(=O)COCCOCCNC(=O)CC[C@H](NC(=O)CCCCCCCCCCCCCCCCC(=O)O)C(=O)O)C(C)C)C(N)=O
B11: Peptide 102 (peptide)
peptide: {C18 diacid}-[γGlu][AEEA][AEEA]GNH[Trp(7-F)]AV[dA]HL[Nle][Sar]-NH2
SMILES: CCCC[C@H](NC(=O)[C@H](CC(C)C)NC(=O)[C@H](Cc1c[nH]cn1)NC(=O)[C@@H](C)NC(=O)[C@@H](NC(=O)[C@H](C)NC(=O)[C@H](Cc1c[nH]c2c(F)cccc12)NC(=O)[C@H](Cc1c[nH]cn1)NC(=O)[C@H](CC(N)=O)NC(=O)CNC(=O)COCCOCCNC(=O)COCCOCCNC(=O)CC[C@H](NC(=O)CCCCCCCCCCCCCCCCC(=O)O)C(=O)O)C(C)C)C(=O)N(C)CC(N)=O
B12: Peptide 95 (peptide)
peptide: {C18 diacid}-[γGlu][AEEA][AEEA][AEEA][AEEA]GN[3Pal][Trp(7-Me)]AV[dA]HL[Nle]-NH2
SMILES: CCCC[C@H](NC(=O)[C@H](CC(C)C)NC(=O)[C@H](Cc1c[nH]cn1)NC(=O)[C@@H](C)NC(=O)[C@@H](NC(=O)[C@H](C)NC(=O)[C@H](Cc1c[nH]c2c(C)cccc12)NC(=O)[C@H](Cc1cccnc1)NC(=O)[C@H](CC(N)=O)NC(=O)CNC(=O)COCCOCCNC(=O)COCCOCCNC(=O)COCCOCCNC(=O)COCCOCCNC(=O)CC[C@H](NC(=O)CCCCCCCCCCCCCCCCC(=O)O)C(=O)O)C(C)C)C(N)=O
B13: Peptide 96 (peptide)
peptide: Palmitoyl-[γGlu][AEEA][AEEA]GNHWAV[dA]HL[Nle]-NH2
SMILES: CCCCCCCCCCCCCCCC(=O)N[C@@H](CCC(=O)NCCOCCOCC(=O)NCCOCCOCC(=O)NCC(=O)N[C@@H](CC(N)=O)C(=O)N[C@@H](Cc1c[nH]cn1)C(=O)N[C@@H](Cc1c[nH]c2ccccc12)C(=O)N[C@@H](C)C(=O)N[C@H](C(=O)N[C@H](C)C(=O)N[C@@H](Cc1c[nH]cn1)C(=O)N[C@@H](CC(C)C)C(=O)N[C@@H](CCCC)C(N)=O)C(C)C)C(=O)O
B14: Peptide 93 (peptide)
peptide: Palmitoyl-[γGlu][AEEA][AEEA]GNH[2Nal]AVAHL[Nle]-NH2
SMILES: CCCCCCCCCCCCCCCC(=O)N[C@@H](CCC(=O)NCCOCCOCC(=O)NCCOCCOCC(=O)NCC(=O)N[C@@H](CC(N)=O)C(=O)N[C@@H](Cc1c[nH]cn1)C(=O)N[C@@H](Cc1ccc2ccccc2c1)C(=O)N[C@@H](C)C(=O)N[C@H](C(=O)N[C@@H](C)C(=O)N[C@@H](Cc1c[nH]cn1)C(=O)N[C@@H](CC(C)C)C(=O)N[C@@H](CCCC)C(N)=O)C(C)C)C(=O)O
B15: Peptide 91 (peptide)
peptide: Palmitoyl-[γGlu][AEEA][AEEA][AEEA][AEEA]GN[3Pal][Trp(7-Me)]AV[dA]HL[Nle]-NH2
SMILES: CCCCCCCCCCCCCCCC(=O)N[C@@H](CCC(=O)NCCOCCOCC(=O)NCCOCCOCC(=O)NCCOCCOCC(=O)NCCOCCOCC(=O)NCC(=O)N[C@@H](CC(N)=O)C(=O)N[C@@H](Cc1cccnc1)C(=O)N[C@@H](Cc1c[nH]c2c(C)cccc12)C(=O)N[C@@H](C)C(=O)N[C@H](C(=O)N[C@H](C)C(=O)N[C@@H](Cc1c[nH]cn1)C(=O)N[C@@H](CC(C)C)C(=O)N[C@@H](CCCC)C(N)=O)C(C)C)C(=O)O

The assay deals with human GRP receptor (human, UniProt P30550 1-384). Briefly: cell-based or functional assay.
Sequence of human GRP receptor (P30550 whole entry): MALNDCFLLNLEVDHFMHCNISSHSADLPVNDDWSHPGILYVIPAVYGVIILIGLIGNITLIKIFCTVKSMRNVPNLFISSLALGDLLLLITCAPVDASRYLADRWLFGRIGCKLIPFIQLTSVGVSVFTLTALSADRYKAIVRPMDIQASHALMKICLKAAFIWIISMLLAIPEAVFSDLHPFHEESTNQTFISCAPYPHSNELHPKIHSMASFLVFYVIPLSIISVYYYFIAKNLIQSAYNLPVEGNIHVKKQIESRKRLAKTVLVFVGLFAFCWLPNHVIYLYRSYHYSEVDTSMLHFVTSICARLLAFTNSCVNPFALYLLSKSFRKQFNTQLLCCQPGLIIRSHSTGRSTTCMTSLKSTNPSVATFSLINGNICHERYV
Regarding B1, the “hIP1 GRPR EC50” value is 352 nM. For the molecule B2, the “hIP1 GRPR EC50” value stood at 12.6 nM. As for B3, the “hIP1 GRPR EC50” value amounted to 11.2 nM. In the case of B4, the “hIP1 GRPR EC50” value is more than 10000 nM. In the case of B5 it was 1.45 nM. In the case of B6, the “hIP1 GRPR EC50” value turned out to be 99.9 nM.

As for B7, the “hIP1 GRPR EC50” value is 0.6 nM. Regarding B8, the “hIP1 GRPR EC50” value stood at 1.57 nM. With B9, the “hIP1 GRPR EC50” value worked out at 5.51 nM. Regarding B10, the “hIP1 GRPR EC50” value was 8.91 nM. With B11, the “hIP1 GRPR EC50” value came out at 181 nM. Consider B12, for which the “hIP1 GRPR EC50” value stood at 110 nM. Regarding B13, the “hIP1 GRPR EC50” value is 1.58 nM.

As for B14, the “hIP1 GRPR EC50” value came out at 6.95 nM. The value for B15 was 3.72 nM.
